Test results from IntAct's records for PubMed 16924104.

B1: Polyunsaturated fatty acid 5-lipoxygenase (Homo sapiens), P09917 (parent)
chain: MPSYTVTVATGSQWFAGTDDYIYLSLVGSAGCSEKHLLDKPFYNDFERGAVDSYDVTVDEELGEIQLVRIEKRKYWLNDDWYLKYITLKTPHGDYIEFPCYRWITGDVEVVLRDGRAKLARDDQIHILKQHRRKELETRQKQYRWMEWNPGFPLSIDAKCHKDLPRDIQFDSEKGVDFVLNYSKAMENLFINRFMHMFQSSWNDFADFEKIFVKISNTISERVMNHWQEDLMFGYQFLNGCNPVLIRRCTELPEKLPVTTEMVECSLERQLSLEQEVQQGNIFIVDFELLDGIDANKTDPCTLQFLAAPICLLYKNLANKIVPIAIQLNQIPGDENPIFLPSDAKYDWLLAKIWVRSSDFHVHQTITHLLRTHLVSEVFGIAMYRQLPAVHPIFKLLVAHVRFTIAINTKAREQLICECGLFDKANATGGGGHVQMVQRAMKDLTYASLCFPEAIKARGMESKEDIPYYFYRDDGLLVWEAIRTFTAEVVDIYYEGDQVVEEDPELQDFVNDVYVYGMRGRKSSGFPKSVKSREQLSEYLTVVIFTASAQHAAVNFGQYDWCSWIPNAPPTMRAPPPTAKGVVTIEQIVDTLPDRGRSCWHLGAVWALSQFQENELFLGMYPEEHFIEKPVKEAMARFRKNLEAIVSVIAERNKKKQLPYYYLSPDRIPNSVAI
partner: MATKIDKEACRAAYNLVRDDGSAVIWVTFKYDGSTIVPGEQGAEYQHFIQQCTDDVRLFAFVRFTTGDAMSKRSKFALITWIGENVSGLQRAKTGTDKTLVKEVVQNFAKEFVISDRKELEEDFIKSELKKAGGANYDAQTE

Variants of: B1
Details: with cotl1_human COTL1, Q14019

effect of a mutation on the interaction | Variant
disrupting interaction strength | W14A;W76A;W103A
